# Laboratory results reported in PMC8298264, “Function of cofactor Akirin2 in the regulation of gene expression in model human neutrophil-like HL60 cells” (Bioscience Reports, 2021).
# B1: sp¦P04075¦ALDOA_HUMAN (protein, UniProt P04075 2-364, looked up)
# Fructose-bisphosphate …: PYQYPALTPEQKKELSDIAHRIVAPGKGILAADESTGSIAKRLQSIGTENTEENRRFYRQLLLTADDRVNPCIGGVILFHETLYQKADDGRPFPQVIKSKGGVVGIKVDKGVVPLAGTNGETTTQGLDGLSERCAQYKKDGADFAKWRCVLKIGEHTPSALAIMENANVLARYASICQQNGIVPIVEPEILPDGDHDLKRCQYVTEKVLAAVYKALSDHHIYLEGTLLKPNMVTPGHACTQKFSHEEIAMATVTALRRTVPPAVTGITFLSGGQSEEEASINLNAINKCPLLKPWALTFSYGRALQASALKAWGGKKENLKAAQEEYVKRALANSLACQGKYTPSGQAGAAASESLFVSNHAY
# B2: sp¦Q9HB71¦CYBP_HUMAN (protein, UniProt Q9HB71 2-228, looked up)
# Calcyclin-binding protein: ASEELQKDLEEVKVLLEKATRKRVRDALTAEKSKIETEIKNKMQQKSQKKAELLDNEKPAAVVAPITTGYTVKISNYGWDQSDKFVKIYITLTGVHQVPTENVQVHFTERSFDLLVKNLNGKSYSMIVNNLLKPISVEGSSKKVKTDTVLILCRKKVENTRWDYLTQVEKECKEKEKPSYDTETDPSEGLMNVLKKIYEDGDDDMKRTINKAWVESREKQAKGDTEF
# B3: sp¦Q8WW12¦PCNP_HUMAN (protein, UniProt Q8WW12 2-178, looked up)
# PEST proteolytic …: ADGKAGDEKPEKSQRAGAAGGPEEEAEKPVKTKTVSSSNGGESSSRSAEKRSAEEEAADLPTKPTKISKFGFAIGSQTTKKASAISIKLGSSKPKETVPTLAPKTLSVAAAFNEDEDSEPEEMPPEAKMRMKNIGRDTPTSAGPNSFNKGKHGFSDNQKLWERNIKSHLGNVHDQDN
# B4: sp¦P68104¦EF1A1_HUMAN (protein, UniProt P68104 2-462, looked up)
# Elongation factor 1-alpha 1: GKEKTHINIVVIGHVDSGKSTTTGHLIYKCGGIDKRTIEKFEKEAAEMGKGSFKYAWVLDKLKAERERGITIDISLWKFETSKYYVTIIDAPGHRDFIKNMITGTSQADCAVLIVAAGVGEFEAGISKNGQTREHALLAYTLGVKQLIVGVNKMDSTEPPYSQKRYEEIVKEVSTYIKKIGYNPDTVAFVPISGWNGDNMLEPSANMPWFKGWKVTRKDGNASGTTLLEALDCILPPTRPTDKPLRLPLQDVYKIGGIGTVPVGRVETGVLKPGMVVTFAPVNVTTEVKSVEMHHEALSEALPGDNVGFNVKNVSVKDVRRGNVAGDSKNDPPMEAAGFTAQVIILNHPGQISAGYAPVLDCHTAHIACKFAELKEKIDRRSGKKLEDGPKFLKSGDAAIVDMVPGKPMCVESFSDYPPLGRFAVRDMRQTVAVGVIKAVDKKAAGAGKVTKSAQKAQKAK
# B5: sp¦P54727¦RD23B_HUMAN (protein, UniProt P54727 1-409, looked up)
# UV excision repair protein …: MQVTLKTLQQQTFKIDIDPEETVKALKEKIESEKGKDAFPVAGQKLIYAGKILNDDTALKEYKIDEKNFVVVMVTKPKAVSTPAPATTQQSAPASTTAVTSSTTTTVAQAPTPVPALAPTSTPASITPASATASSEPAPASAAKQEKPAEKPAETPVATSPTATDSTSGDSSRSNLFEDATSALVTGQSYENMVTEIMSMGYEREQVIAALRASFNNPDRAVEYLLMGIPGDRESQAVVDPPQAASTGAPQSSAVAAAAATTTATTTTTSSGGHPLEFLRNQPQFQQMRQIIQQNPSLLPALLQQIGRENPQLLQQISQHQEHFIQMLNEPVQEAGGQGGGGGGGSGGIAEAGSGHMNYIQVTPQEKEAIERLKALGFPEGLVIQAYFACEKNENLAANFLLQQNFDED
# B6: sp¦P52209¦6PGD_HUMAN (protein, UniProt P52209 1-483, looked up)
# 6-phosphogluconate …: MAQADIALIGLAVMGQNLILNMNDHGFVVCAFNRTVSKVDDFLANEAKGTKVVGAQSLKEMVSKLKKPRRIILLVKAGQAVDDFIEKLVPLLDTGDIIIDGGNSEYRDTTRRCRDLKAKGILFVGSGVSGGEEGARYGPSLMPGGNKEAWPHIKTIFQGIAAKVGTGEPCCDWVGDEGAGHFVKMVHNGIEYGDMQLICEAYHLMKDVLGMAQDEMAQAFEDWNKTELDSFLIEITANILKFQDTDGKHLLPKIRDSAGQKGTGKWTAISALEYGVPVTLIGEAVFARCLSSLKDERIQASKKLKGPQKFQFDGDKKSFLEDIRKALYASKIISYAQGFMLLRQAATEFGWTLNYGGIALMWRGGCIIRSVFLGKIKDAFDRNPELQNLLLDDFFKSAVENCQDSWRRAVSTGVQAGIPMPCFTTALSFYDGYRHEMLPASLIQAQRDYFGAHTYELLAKPGQFIHTNWTGHGGTVSSSSYNA
# B7: sp¦P49458¦SRP09_HUMAN (protein, UniProt P49458 2-86, looked up)
# Signal recognition particle 9 …: PQYQTWEEFSRAAEKLYLADPMKARVVLKYRHSDGNLCVKVTDDLVCLVYKTDQAQDVKKIEKFHSQLMRLMVAKEARNVTMETE
# B8: sp¦P10599¦THIO_HUMAN (protein, UniProt P10599 2-105, looked up)
# Thioredoxin: VKQIESKTAFQEALDAAGDKLVVVDFSATWCGPCKMIKPFFHSLSEKYSNVIFLEVDVDDCQDVASECEVKCMPTFQFFKKGQKVGEFSGANKEKLEATINELV
# B9: sp¦O75937¦DNJC8_HUMAN (protein, UniProt O75937 2-253, looked up)
# DnaJ homolog subfamily C …: AASGESGTSGGGGSTEEAFMTFYSEVKQIEKRDSVLTSKNQIERLTRPGSSYFNLNPFEVLQIDPEVTDEEIKKRFRQLSILVHPDKNQDDADRAQKAFEAVDKAYKLLLDQEQKKRALDVIQAGKEYVEHTVKERKKQLKKEGKPTIVEEDDPELFKQAVYKQTMKLFAELEIKRKEREAKEMHERKRQREEEIEAQEKAKREREWQKNFEESRDGRVDSWRNFQANTKGKKEKKNRTFLRPPKVKMEQRE
# B10: sp¦Q9BY43¦CHM4A_HUMAN (protein, UniProt Q9BY43 1-222, looked up)
# Charged multivesicular body …: MSGLGRLFGKGKKEKGPTPEEAIQKLKETEKILIKKQEFLEQKIQQELQTAKKYGTKNKRAALQALRRKKRFEQQLAQTDGTLSTLEFQREAIENATTNAEVLRTMELAAQSMKKAYQDMDIDKVDELMTDITEQQEVAQQISDAISRPMGFGDDVDEDELLEELEELEQEELAQELLNVGDKEEEPSVKLPSVPSTHLPAGPAPKVDEDEEALKQLAEWVS
# B11: sp¦O75792¦RNH2A_HUMAN (protein, UniProt O75792 1-299, looked up)
# Ribonuclease H2 subunit A: MDLSELERDNTGRCRLSSPVPAVCRKEPCVLGVDEAGRGPVLGPMVYAICYCPLPRLADLEALKVADSKTLLESERERLFAKMEDTDFVGWALDVLSPNLISTSMLGRVKYNLNSLSHDTATGLIQYALDQGVNVTQVFVDTVGMPETYQARLQQSFPGIEVTVKAKADALYPVVSAASICAKVARDQAVKKWQFVEKLQDLDTDYGSGYPNDPKTKAWLKEHVEPVFGFPQFVRFSWRTAQTILEKEAEDVIWEDSASENQEGLRKITSYFLNEGSQARPRSSHRYFLERGLESATSL
# B12: sp¦O43396¦TXNL1_HUMAN (protein, UniProt O43396 2-289, looked up)
# Thioredoxin-like protein 1: VGVKPVGSDPDFQPELSGAGSRLAVVKFTMRGCGPCLRIAPAFSSMSNKYPQAVFLEVDVHQCQGTAATNNISATPTFLFFRNKVRIDQYQGADAVGLEEKIKQHLENDPGSNEDTDIPKGYMDLMPFINKAGCECLNESDEHGFDNCLRKDTTFLESDCDEQLLITVAFNQPVKLYSMKFQGPDNGQGPKYVKIFINLPRSMDFEEAERSEPTQALELTEDDIKEDGIVPLRYVKFQNVNSVTIFVQSNQGEEETTRISYFTFIGTPVQATNMNDFKRVVGKKGESH
# Tested on: human HL60 cells
# Assay: SWATH-MS proteomics, differential protein representation, akirin2 KO vs WT HL60 cells
# Assay type: cell-based
# Protocol: Total proteins were extracted from WT and akirin2 KO HL60 cells using the AllPrep DNA/RNA/Protein Mini Kit (Qiagen) and protein concentration was determined using the BCA Protein Assay with BSA (Sigma–Aldrich) as standard. Protein extracts (150 µg per sample, n=3 biological replicates) from each WT and KO cells were trypsin digested using the FASP Protein Digestion Kit (Expedeon Ltd., Abcam, Cambridge, U.K.) and sequencing grade trypsin (Promega, Madison, WI, U.S.A.) following manufacturer’s recommendations. The resulting peptides were finally desalted on to OMIX Pipette tips C18 (Agilent Technologies, Santa Clara, CA, U.S.A.), dried down and stored at −20 °C until mass spectrometry analysis. […] Three micrograms of each protein digest from the three biological replicates of WT and akirin2 KO HL60 cells were used for the generation of the reference spectral ion library as part of the SWATH-MS analysis.
# Peptides were eluted in a 120-min gradient from 5 to 30% solvent B in solvent A followed by 15-min gradient from 30 to 60% solvent B in solvent A (solvent A: 0.1% formic acid in water, solvent B: 0.1% formic acid in acetonitrile) and directly injected into the mass spectrometer for analysis. For IDA experiments, the mass spectrometer was set to scanning full spectra (350–1400 m/z) using 250 ms accumulation time per spectrum, followed by up to 50 MS/MS scans (100–1500 m/z). Candidate ions with a charge state between +2 and +5 counts per second above a minimum threshold of 100 were isolated for fragmentation. One MS/MS spectrum was collected for 100 ms, before adding those precursor ions to the exclusion list for 15 s (mass spectrometer operated by Analyst TF 1.6, AB Sciex). Dynamic background subtraction was turned off. MS/MS analyses were recorded in high-sensitivity mode with rolling collision energy on and a collision energy spread of 5. For SWATH quantitative analysis, six independent samples (three replicates from WT and akirin2 KO HL60 cells, 5 µg each) were subjected to the cyclic DIA of mass spectra using the SWATH variable windows calculator (V 1.0, AB Sciex) and the SWATH acquisition method editor (AB Sciex), similar to established methods. […] For these experiments, a 50-ms survey scan (350–1400 m/z) was acquired at the beginning of each cycle, and SWATH–MS/MS spectra were collected from 100–1500 m/z for 70 ms at high-sensitivity mode, resulting in a cycle time of 3.6 s. Collision energy for each window was determined according to the calculation for a charge +2 ion-centered upon the window with a collision energy spread of 15. To create a spectral library of all the detectable peptides in the samples, the IDA MS raw files were combined and subjected to database search in unison using ProteinPilot software v. 5.0.1 (AB Sciex) with the Paragon algorithm. […] The detected protein threshold was set at 0.05. An independent false discovery rate (FDR) analysis, using the target–decoy approach provided by Protein Pilot (AB Sciex; https://sciex.com/products/software/proteinpilot-software), was used to assess the quality of identifications. Positive identifications were considered when identified proteins reached 1% of global FDR. […] Global normalization was performed according to the Total Area Sums (TAS) of all detected proteins in the samples. […] Heatmaps were prepared using the Heatmapper (http://www.heatmapper.ca/expression/) with average linkage and Euclidean distance measurement method.
# [1] = SWATH-MS, akirin2 KO vs WT HL60 cells, over-represented in KO
# [2] = Over-represented in KO, KO vs WT HL60 cells
Molecule,Fold Change [1],Log (Fold Change) [1],Fold Change [2],Log (Fold Change) [2]
B1,1.436,0.1572,,
B2,1.407,0.1482,,
B3,,,1.373,0.1375
B4,1.443,0.1593,,
B5,,,1.363,0.1346
B6,,,1.367,0.1359
B7,,,1.349,0.1301
B8,,,1.394,0.1444
B9,,,1.352,0.1309
B10,,,1.396,0.1447
B11,1.47,0.1673,,
B12,,,1.348,0.1296
